Patent US20210188980A1 (SHANGHAI EPIMAB BIOTHERAPEUTICS, published 2021)
Residue numbers refer to the chain shown, from its start.

B1: mAb713c (antibody, V domains shown)
VH: EVKLVESGGGLVKPGGSLELSCAASGFTSSDYGMHWVRQAPEKGLEWVAYISSGSYTIYYADTVKGRFTISRDNAKNTLFLQMTSLRSEDTAMYYCAKRGGSSHVNVMDYWGQGTSVTVSS
VL: DIQMTQSSSYLSVSLGGRVTITCKASDHINNWLAWYQQKPGNAPRLLISGATSLETGVPSRFSGSGSGKDYTLSITSLQTEDVATYYCQQYWSPPYTFGGGTKLEIK
notes: also called mAb73c
B2: HumAb713-3 (antibody, human IgG1, kappa, L234A L235A, V domains shown)
VH: EVQLVESGGGLVQPGGSLRLSCAASGFTSSDYGMHWVRQAPGKGLEWVSYISSGSYTIYYADTVKGRFTISRDNAKNSLYLQMNSLRDEDTAVYYCAKRGGSSHVNVMDYWGQGTTVTVSS
VL: DIQMTQSPSSLSASVGDRVTITCKASDHINNWLAWYQQKPGKAPKLLIYGATSLETGVPSRFSGSGSGTDFTFTISSLQPEDIATYYCQQYWSPPYTFGGGTKVEIKR
notes: humanized mAb713; also called HurnAb713-3
B3: HumAb713-11 (antibody, human IgG1, kappa, L234A L235A, V domains shown)
VH: B2 VH
VL: B2 VL with Y49S, F71Y
notes: humanized mAb713
B4: HumAb713-1 (antibody, human IgG1, kappa, L234A L235A, V domains shown)
VH: B2 VH with S29F, K98R
VL: B2 VL
notes: humanized mAb713
B5: HumAb709-7 (antibody, human IgG1, kappa, L234A L235A, V domains shown)
VH: EVQLVESGGGLVQPGGSLRLSCAASGFTFSFYTMSWVRQAPGKGLEWVATISGGGRDTYYPDSVKGRFTISRDNAKNSLYLQMNSLRAEDTAVYYCARQGGNYLFAYWGQGTLVTVSS
VL: DIVMTQSPSSLSASVGDRVTITCKASQDVNTVVAWYQQKPGKAPKVLISWASTRHTGVPSRFSGSGSGTDYTLTISSLQPEDFATYYCQQHYTTPYTFGGGTKVEIKR
notes: humanized mAb709
B6: HumAb709-8 (antibody, human IgG1, kappa, L234A L235A, V domains shown)
VH: B5 VH with R98G
VL: B5 VL
notes: humanized mAb709; also called HurnAb709-8
B7: HumAb709-1 (antibody, human IgG1, kappa, L234A L235A, V domains shown)
VH: B5 VH
VL: B5 VL with V3Q, V46L, S49Y
notes: humanized mAb709
B8: HumAb709-2 (antibody, human IgG1, kappa, L234A L235A, V domains shown)
VH: B5 VH with R98G
VL: B5 VL with V3Q, V46L, S49Y
notes: humanized mAb709
B9: HumAb709-10 (antibody, human IgG1, kappa, L234A L235A, V domains shown)
VH: B5 VH
VL: B5 VL with S63T
notes: humanized mAb709
B10: HumAb719-11 (antibody, human IgG1, kappa, L234A L235A, V domains shown)
VH: EVQLLESGGGLVQPGGSLRLSCAASGFSFSSHLMSWVRQAPGKGLEWVAAISGGGADTYYPDSVKGRFTISRDNSKNTLYLQMNSLRAEDTAVYYCTRQILAFDSWGQGTTVTVSS
VL: DIQMNQSPSSLSASVGDRVTITCHASQNIYVWLNWYQQKPGKAPKLLIYKASNLHTGVPSRFSGSGSGTDFTFTISSLQPEDIATYYCQQGQSYPWTFGGGTKVEIKR
notes: humanized mAb719
B11: HumAb719-8 (antibody, human IgG1, kappa, L234A L235A, V domains shown)
VH: B10 VH with S28T, A49S, T97A, R98K
VL: B10 VL
notes: humanized mAb719
B12: HumAb719-12 (antibody, human IgG1, kappa, L234A L235A, V domains shown)
VH: B10 VH with G44R
VL: B10 VL
notes: humanized mAb719
B13: HumAb719-21 (antibody, human IgG1, kappa, L234A L235A, V domains shown)
VH: B10 VH with G44R, D62A, S105A
VL: B10 VL with A43I
notes: humanized mAb719; also called HuniAb719-21
B14: HumAb709-12 (antibody, human IgG1, kappa, L234A L235A, V domains shown)
VH: B5 VH with G44R, R98G
VL: B5 VL with S63T
notes: humanized mAb709; also called HuntAb709-12
B15: HumAb709-6 (antibody, human IgG1, kappa, L234A L235A, V domains shown)
VH: B5 VH with G44R, R98G
VL: B5 VL with V3Q, V46L
notes: humanized mAb709
B16: HumAb709-9 (antibody, human IgG1, kappa, L234A L235A, V domains shown)
VH: B5 VH with G44R, R98G
VL: B5 VL
notes: humanized mAb709
B17: HumAb709-3 (antibody, human IgG1, kappa, L234A L235A, V domains shown)
VH: B5 VH with G44R, R98G
VL: B5 VL with V3Q, V46L, S49Y
notes: humanized mAb709
B18: HumAb709-5 (antibody, human IgG1, kappa, L234A L235A, V domains shown)
VH: B5 VH with R98G
VL: B5 VL with V3Q, V46L
notes: humanized mAb709
B19: HumAb709-4 (antibody, human IgG1, kappa, L234A L235A, V domains shown)
VH: B5 VH
VL: B5 VL with V3Q, V46L
notes: humanized mAb709
B20: HumAb709-15 (antibody, human IgG1, kappa, L234A L235A, V domains shown)
VH: B5 VH with G44R, R98G
VL: B5 VL with A43S, P44L, S63T
notes: humanized mAb709
B21: HumAb709-14 (antibody, human IgG1, kappa, L234A L235A, V domains shown)
VH: B5 VH with R98G
VL: B5 VL with A43S, P44L, S63T
notes: humanized mAb709
B22: HumAb709-11 (antibody, human IgG1, kappa, L234A L235A, V domains shown)
VH: B5 VH with R98G
VL: B5 VL with S63T
notes: humanized mAb709
B23: HumAb709-13 (antibody, human IgG1, kappa, L234A L235A, V domains shown)
VH: B5 VH
VL: B5 VL with A43S, P44L, S63T
notes: humanized mAb709

Each binder was assayed against T1, human PD-1-His protein (human, UniProt Q15116 25-167, limits assumed) (assay: SPR Biacore).
T1 construct: also called huPD-1; not shown: His tag
T1 sequence (Q15116 25-167 limits assumed): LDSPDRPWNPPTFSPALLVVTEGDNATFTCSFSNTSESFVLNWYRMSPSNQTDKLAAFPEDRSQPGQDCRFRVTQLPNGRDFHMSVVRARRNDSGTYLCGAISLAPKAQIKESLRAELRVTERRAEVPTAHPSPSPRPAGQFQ
Binder B1 has a Kd of 1300 pM, a koff of 0.000284 s⁻¹ and a kon of 218000 M⁻¹ s⁻¹.
B2 was tested, and the Kd was 2460 pM, the koff was 0.000208 s⁻¹ and the kon was 84500 M⁻¹ s⁻¹.
B3 showed a Kd of 2370 pM, a koff of 0.000378 s⁻¹ and a kon of 159000 M⁻¹ s⁻¹.
For B4, the Kd was 11100 pM, the koff was 0.001 s⁻¹ and the kon was 90100 M⁻¹ s⁻¹.

These binders were tested against T2, human PD-1 expressed on cells (human, UniProt Q15116 25-288) (assay: cell RBA FACS; competitor PD-L1/Fc).
T2 construct: whole, on cells; also called CHO-K1/huPD-1; CHO-K1-hPD-1 cells
T2 sequence (Q15116 25-288): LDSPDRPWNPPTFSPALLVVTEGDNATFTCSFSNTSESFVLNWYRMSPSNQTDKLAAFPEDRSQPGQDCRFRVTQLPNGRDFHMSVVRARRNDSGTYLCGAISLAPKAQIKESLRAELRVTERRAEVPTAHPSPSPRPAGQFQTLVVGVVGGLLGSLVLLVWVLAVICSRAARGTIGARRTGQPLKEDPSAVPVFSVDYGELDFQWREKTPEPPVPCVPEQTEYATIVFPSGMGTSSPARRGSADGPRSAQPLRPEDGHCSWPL
Binder B1 has an IC50 of 910 pM.
Binder B2 has an IC50 of 770 pM.
Work on B3 yielded an IC50 of 510 pM.
B4 gave an IC50 of 500 pM.

What follows are binders tested against T2, human PD-1 expressed on cells (assay: cell RBA FACS; competitor PD-L2/Fc).
B1 was tested, and the IC50 was 2200 pM.
With B2 the IC50 was 1240 pM.
B3 gave an IC50 of 970 pM.
B4 showed an IC50 of 1200 pM.

Each binder was assayed against T1, human PD-1-His protein (assay: SPR Biacore, Ab captured, huPD-1-His analyte).
Procedure: (§1) All 15 humanized antibodies and the chimeric antibody (mAb709c) were characterized by binding ELISA and cell-based RBA. For cell-based RBA, 2×10⁵ cells/well of CHO-K1-huPD1 cells were added to a pre-blocked 96-well round-bottomed plate and after washing, 50 μl antibodies with diluted concentration ranging from 0.064 nM to 200 nM were added to each well. Next, 50 μl of 60 μg/ml biotinylated PD-L1/Fc or biotinylated PD-L2/Fc protein were added. After gentle mixing and incubation at 4° C., the cells were washed and stained by Alexa Fluor™ 488 streptavidin solution (1:1000, ThermoFisher Scientific; Cat. No. S32354). Signals were readout by FACS and curves were fitted by GraphPad software. […] The association and dissociation rate constants, k (M⁻¹ s⁻¹) and koff(s⁻¹), respectively, were determined by making kinetic binding measurements at five different concentrations of human PD-1-His protein at a continuous flow rate of 30 μl/min. The equilibrium dissociation constant KD (M) of the reaction between antibodies and related target proteins was calculated from the kinetic rate constants using the formula KD=koff/kₒₙ. HumAb709-8 had minimal back-mutation(s) while maintaining to the greatest extent the affinity of the parental variable domains on chimeric mAb709c.
Binder B5 has a Kd of 2360 pM, a koff of 0.000336 s⁻¹ and a kon of 141000 M⁻¹ s⁻¹.
Binder B6 has a Kd of 368 pM, a koff of 4.69e-05 s⁻¹ and a kon of 127000 M⁻¹ s⁻¹.
B7 was tested, and the Kd was 11000 pM, the koff was 0.00215 s⁻¹ and the kon was 195000 M⁻¹ s⁻¹.
B8 was tested, and the Kd was 684 pM, the koff was 5.5e-05 s⁻¹ and the kon was 80300 M⁻¹ s⁻¹.
Binder B9 has a Kd of 2040 pM, a koff of 0.000297 s⁻¹ and a kon of 146000 M⁻¹ s⁻¹.

What follows are binders tested against T3, human PD-1 ECD/Fc fusion protein (human) (assay: BLI Octet, immobilized huPD-1-Fc, Ab analyte).
T3 construct: also called huPD-1/Fc; HuPD-1 ECD/Fc
T3 sequence (chain, as listed by the source limits assumed): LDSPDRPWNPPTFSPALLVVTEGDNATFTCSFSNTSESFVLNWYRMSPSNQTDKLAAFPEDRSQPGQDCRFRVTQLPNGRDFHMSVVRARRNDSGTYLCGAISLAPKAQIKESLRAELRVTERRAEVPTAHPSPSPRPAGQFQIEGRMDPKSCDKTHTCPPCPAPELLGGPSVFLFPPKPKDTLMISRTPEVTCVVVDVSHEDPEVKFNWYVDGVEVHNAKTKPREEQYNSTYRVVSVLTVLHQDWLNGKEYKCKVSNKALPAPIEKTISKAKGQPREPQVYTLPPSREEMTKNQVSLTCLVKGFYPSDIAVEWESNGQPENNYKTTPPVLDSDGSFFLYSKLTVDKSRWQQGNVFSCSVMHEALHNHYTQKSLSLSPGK
Description: All 21 humanized antibodies and the chimeric antibody (mAb719c) were characterized by binding ELISA and affinity determination using Octet® RED96 biolayer interferometry system (Pall FortéBio LLG), using a biosensor having immobilized human PD-Fc as the antibody target. Rate constants were derived by making kinetic binding measurements at five different concentrations of antibody.
Work on B10 yielded a Kd of 3820 pM, a koff of 0.000227 s⁻¹ and a kon of 59400 M⁻¹ s⁻¹.
B11 gave a Kd of 460 pM, a koff of 4.9e-05 s⁻¹ and a kon of 107000 M⁻¹ s⁻¹.
Binder B12 has a Kd of 844 pM, a koff of 5.81e-05 s⁻¹ and a kon of 68800 M⁻¹ s⁻¹.
With B13 the Kd was 600 pM, the koff was 6.26e-05 s⁻¹ and the kon was 104000 M⁻¹ s⁻¹.

The binders below were run against T2, human PD-1 expressed on cells (assay: cell RBA FACS, CHO-K1-huPD1; competitor biotin-PD-L1/Fc).
Procedure: as §1
With B5 the IC50 was 400 pM.
B6 gave an IC50 of 440 pM.
With B14 the IC50 was 450 pM.
Work on B15 yielded an IC50 of 1230 pM.
B16 showed an IC50 of 1040 pM.
B17 gave an IC50 of 1250 pM.
B18 showed an IC50 of 670 pM.
B19 was tested, and the IC50 was 780 pM.
Work on B20 yielded an IC50 of 900 pM.
B21 was tested, and the IC50 was 510 pM.
B7 gave an IC50 of 1020 pM.
Binder B8 has an IC50 of 470 pM.
For B22, the IC50 was 550 pM.
For B9, the IC50 was 290 pM.
B23 showed an IC50 of 500 pM.

Each binder was assayed against T2, human PD-1 expressed on cells (assay: cell RBA FACS, CHO-K1-huPD1; competitor biotin-PD-L2/Fc).
Procedure: as §1
B5 showed an IC50 of 840 pM.
Work on B6 yielded an IC50 of 1000 pM.
B14 gave an IC50 of 1350 pM.
Work on B15 yielded an IC50 of 1260 pM.
For B16, the IC50 was 1760 pM.
B17 showed an IC50 of 1640 pM.
For B18, the IC50 was 970 pM.
Binder B19 has an IC50 of 1680 pM.
Binder B20 has an IC50 of 1210 pM.
In the case of B21, the IC50 is reported as 920 pM.
With B7 the IC50 was 1640 pM.
In the case of B8, the IC50 is reported as 990 pM.
B22 gave an IC50 of 920 pM.
With B9 the IC50 was 800 pM.
Work on B23 yielded an IC50 of 780 pM.
